# According to patent US20140120109A1 (Regeneron, published 2014):
# Residue numbers refer to the chain shown, from its start.
# T1: mouse DR3, full-length, expressed on HEK293 NFkB-luciferase reporter cells (mouse)
# T1 chain: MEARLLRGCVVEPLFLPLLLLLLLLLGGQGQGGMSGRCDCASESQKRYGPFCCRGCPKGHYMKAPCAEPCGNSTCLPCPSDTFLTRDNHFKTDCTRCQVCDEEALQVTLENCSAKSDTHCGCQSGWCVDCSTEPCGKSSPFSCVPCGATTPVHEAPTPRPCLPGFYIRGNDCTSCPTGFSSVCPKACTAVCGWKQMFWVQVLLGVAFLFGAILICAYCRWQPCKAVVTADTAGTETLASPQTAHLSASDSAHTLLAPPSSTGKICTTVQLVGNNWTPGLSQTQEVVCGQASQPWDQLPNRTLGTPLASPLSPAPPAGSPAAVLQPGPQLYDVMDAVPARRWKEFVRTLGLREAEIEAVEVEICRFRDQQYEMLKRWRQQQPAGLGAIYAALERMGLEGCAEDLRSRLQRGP
# T2: human DR3, full-length, expressed on HEK293 NFkB-luciferase reporter cells (human, UniProt Q93038 25-417)
# T2 sequence: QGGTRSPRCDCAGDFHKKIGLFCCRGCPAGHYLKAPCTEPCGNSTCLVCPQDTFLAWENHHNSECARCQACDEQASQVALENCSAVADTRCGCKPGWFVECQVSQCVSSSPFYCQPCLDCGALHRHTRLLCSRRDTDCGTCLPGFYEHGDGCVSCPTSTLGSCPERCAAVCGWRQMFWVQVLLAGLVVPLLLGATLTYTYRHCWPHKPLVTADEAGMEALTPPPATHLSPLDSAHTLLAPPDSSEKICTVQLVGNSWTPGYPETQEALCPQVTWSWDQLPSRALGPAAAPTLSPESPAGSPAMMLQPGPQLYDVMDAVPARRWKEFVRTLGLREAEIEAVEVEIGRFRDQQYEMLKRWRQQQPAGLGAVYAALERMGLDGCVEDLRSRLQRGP
# T3: Fhm, hTL1A(Q167R), soluble, E. coli-expressed, residues 72-251 of SEQ ID NO:246 (human, UniProt O95150 72-251)
# T3 construct: with or without N-terminal Met
# T3 chain: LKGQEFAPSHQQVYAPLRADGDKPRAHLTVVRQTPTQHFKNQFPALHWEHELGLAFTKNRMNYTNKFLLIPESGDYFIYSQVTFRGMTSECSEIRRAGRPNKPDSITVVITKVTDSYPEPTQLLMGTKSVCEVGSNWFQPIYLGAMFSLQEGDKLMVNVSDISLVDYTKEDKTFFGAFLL
# T4: cynomolgus monkey TL1A, soluble, E. coli-expressed, residues 72-251 of SEQ ID NO:248 (cynomolgus monkey (Macaca fascicularis), UniProt O95150 72-251 (human entry))
# T4 construct: with or without N-terminal Met; also called MfTL1A (E. Coli)
# T4 chain: T3 chain with F39L, I78V, R96Q
# T5: mouse TL1A, soluble, E. coli-expressed, residues 76-252 of SEQ ID NO:250 (mouse, UniProt Q5UBV8 76-252)
# T5 construct: with or without N-terminal Met; also called mTL1A (E. Coli)
# T5 sequence: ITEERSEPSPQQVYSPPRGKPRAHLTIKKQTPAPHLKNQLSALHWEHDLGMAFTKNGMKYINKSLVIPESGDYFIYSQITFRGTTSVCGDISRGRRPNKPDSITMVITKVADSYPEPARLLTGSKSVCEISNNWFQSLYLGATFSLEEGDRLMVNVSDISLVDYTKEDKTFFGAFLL
# T6: human TL1A, soluble, CHO-expressed, residues 72-251 of SEQ ID NO:244 with N-terminal His6-tag (human, UniProt O95150 72-251)
# T6 construct: also called hTL1A; hTL1A (CHO)
# T6 sequence: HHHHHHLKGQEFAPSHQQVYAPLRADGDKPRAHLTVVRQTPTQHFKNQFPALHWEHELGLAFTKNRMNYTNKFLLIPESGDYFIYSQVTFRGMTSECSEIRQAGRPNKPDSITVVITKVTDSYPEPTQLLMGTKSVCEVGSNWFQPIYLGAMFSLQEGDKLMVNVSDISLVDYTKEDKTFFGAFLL
# T7: cynomolgus monkey TL1A, soluble, CHO-expressed, residues 72-251 of SEQ ID NO:248 with N-terminal His6-tag (cynomolgus monkey (Macaca fascicularis), UniProt O95150 72-251 (human entry))
# T7 construct: also called MfTL1A; MfTL1A (CHO)
# T7 chain: T6 sequence with F45L, I84V
# T8: Fhm, hTL1A(Q167R), soluble, CHO-expressed, residues 72-251 of SEQ ID NO:246 (human, UniProt O95150 72-251)
# T8 construct: also called Fhm (CHO); FHM (CHO)
# T8 chain: T6 sequence with Q102R
# B1: full length mouse TL1A expressed on HEK293 cells (ligand)
# chain: MAEELGLGFGEGVPVEVLPEGCRHRPEARAGLAARSKACLALTCCLLSFPILAGLSTLLMAGQLRVPGKDCMLRAITEERSEPSPQQVYSPPRGKPRAHLTIKKQTPAPHLKNQLSALHWEHDLGMAFTKNGMKYINKSLVIPESGDYFIYSQITFRGTTSVCGDISRGRRPNKPDSITMVITKVADSYPEPARLLTGSKSVCEISNNWFQSLYLGATFSLEEGDRLMVNVSDISLVDYTKEDKTFFGAFLL
# B2: full-length cynomolgus monkey TL1A expressed on HEK293 cells (ligand)
# chain: MAEDLGLSFGETASVEMLPEHGSCRPKARSSSACWALTCCLVLLPFLAGLTTYLLVSQLRAQGEACVQLQDLKGQEFAPSHQQVYAPLRADGDKPRAHLTVVRQTPTQHLKNQFPALHWEHELGLAFTKNRMNYTNKFLLIPESGDYFVYSQVTFRGMTSECSEIRQAGRPNKPDSITVVITKVTDSYPEPTQLLMGTKSVCEVGSNWFQPIYLGAMFSLQEGDKLMVNVSDISLVDYTKEDKTFFGAFLL
# B3: full length rat TL1A expressed on HEK293 cells (ligand)
# chain: MAEELGLGFGEAVPVEMLPEGCRHRREARTGLAARSKACLALTCCLLSFPILAGLSTLLMTGQLRIPGKDCMFPTVTEERSAPSAQPVYTPSRDKPKAHLTIMRQTPVPHLKNELAALHWENNLGMAFTKNRMNYTNKFLVIPESGDYFIYSQITFRGTTSECGDISRVRRPKKPDSITVVITKVADSYPEPAHLLTGTKSVCEISSNWFQPIYLGAMFSLEEGDRLMVNVSDISLVDYTKEDKTFFGAFLI
# B4: H2M1804N (antibody, V domains shown)
# VH: QVQLHQWGAGLLKPSETLSLTCAVSGVSFSDYHWAWIRQSPGKGLEWIGDINHRGRTNYNPSLKSRVTISLDTSGNPFSLKLTSVTAADTAVYYCARDFPNWVFDSWGQGILVTVSS
# VL: EIVLSQSPGTLSLSPGERATLSCRASQSVSSSFLAWYQQYPGQAPRLLIYGASRRATGIPDRFRGSGSGTDFTLTISRLEPEDFAVYYCQQYGSSPLTFGGGTKVENK
# notes: chimeric hybridoma antibody: human variable regions, mouse constant regions (mouse Fc)
# B5: H2M1818N (antibody, V domains shown)
# VH: RLQLVESGGGLVKPGGSLKLSCAASGFTISDYYMSWIRQAPGKGLEWVSYIGGSGSTIYYADSVKGRFTISRDNAKNSLYLQMNSLRAEDTAVYYCAREDADSYYYYGMDVWGQGTTVTVSS
# VL: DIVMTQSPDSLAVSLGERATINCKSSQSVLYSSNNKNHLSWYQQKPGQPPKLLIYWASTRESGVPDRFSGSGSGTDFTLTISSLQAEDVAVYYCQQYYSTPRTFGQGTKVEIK
# notes: as for B4
# Columns and labels:
# [1] = target: T1, mouse DR3, full-length, expressed on …; experiment: cell-based or functional assay
# [2] = target: T2, human DR3, full-length, expressed on …; experiment: cell-based or functional assay
# [3] = target: T3, Fhm, hTL1A(Q167R), soluble, E. …; experiment: SPR 25C, mAb captured
# Method: (§1) Measurements were conducted on a T100 BIACORE™ instrument. […] Kinetic association (kₐ) and dissociation (kd) rate constants were determined by fitting the data to a 1:1 binding model using BIAevaluation 4.1 curve fitting software (BIAcore Life Sciences). Molar concentrations of TL1A/Fhm used in the data fitting assumed a monomeric state for TL1A in solution. Binding dissociation equilibrium constants (KD) and dissociative half-lives (t_{1/2}) were calculated from the kinetic rate constants as: KD (M)=kd/kₐ; and t_{1/2} (min)=[In2/(60*kd)].
# [4] = target: T4, cynomolgus monkey TL1A, soluble, E. …; experiment: SPR 25C, mAb captured
# Method: as §1
# [5] = target: T4, cynomolgus monkey TL1A, soluble, E. …; experiment: SPR 37C, mAb captured
# Method: as §1
# [6] = target: T5, mouse TL1A, soluble, E. coli-expressed, …; experiment: SPR 25C, steady state
# Method: as §1, with “Binding dissociation equilibrium constants (KD) and dissociative half-lives (t_{1/2}) were calculated from the kinetic rate constants as: KD (M)=kd/kₐ; and t_{1/2} (min)=[In2/(60*kd)].” left out
# [7] = target: T6, human TL1A, soluble, CHO-expressed, …; experiment: ELISA, blocks hTL1A (10 pM) binding hDcR3-Fc
# Method: (§2) The ability of antibodies to block human TL1A binding to its cognate receptors, the DR3 and DcR3 receptors, was measured using a competition sandwich ELISA. In addition, blocking of a human TL1A variant FHM (human TL1A Q167R) and the cynomolgus monkey (Macaca fascicularis) TL1A (MfTL1A) protein binding to the human DR3 or DcR3 receptors was measured in the same manner. Constant amounts of biotinylated human TL1A or FHM (both expressed with a 6-His tag in CHO cells) or biotinylated MfTL1A (expressed in CHO cells) were separately titrated with varying amounts of antibodies. The antibody-protein complexes were incubated in solution (1 hr, 25° C.) and then transferred to microtiter plates coated with human DR3 (hDR3) or human DcR3 (hDcR3) expressed as human IgG1 Fc fusion proteins. After one hour at 25° C. the wells were washed, and bound human or monkey TL1A was detected with streptavidin conjugated with horseradish peroxidase (HRP). Wells were developed with a TMB solution to produce a colorimetric reaction and quenched with aqueous sulfuric acid before reading absorbance at 450 nm on a Perkin-Elmer Victor X5 plate reader. A sigmoidal dose-response curve was fit to the data using the Prism™ data analysis package. […] Both fully human anti-hTL1A mAbs and comparator antibodies, i.e., control mAb1 (an anti-hTL1A antibody with heavy and light chain variable domains having the amino acid sequences corresponding to SEQ ID NOS:21 and 27, respectively, of US 2009/0280116) and control mAb3 (an anti-hTL1A antibody with heavy and light chain variable domains having the amino acid sequences corresponding to SEQ ID NOS:57 and 48, respectively, of US 2009/0280116), were included in the study. NB: No binding under the conditions tested; NT: Not tested. Concentrations of biotinylated soluble ligands: (1) 150 pM; (2) 500 pM; (3) 10 pM; and (4) 50 pM.
# [8] = target: T6, human TL1A, soluble, CHO-expressed, …; experiment: ELISA, blocks hTL1A (150 pM) binding hDR3-Fc
# Method: as §2
# [9] = target: T7, cynomolgus monkey TL1A, soluble, …; experiment: ELISA, blocks MfTL1A (50 pM) binding hDcR3-Fc
# Method: as §2
# [10] = target: T7, cynomolgus monkey TL1A, soluble, …; experiment: ELISA, blocks MfTL1A (500 pM) binding hDR3-Fc
# Method: as §2
# [11] = target: T8, Fhm, hTL1A(Q167R), soluble, …; experiment: ELISA, blocks FHM (150 pM) binding hDR3-Fc; blocking of FHM binding to hDR3
# Method: as §2
Binder,"EC50 (cells), NFkB-luciferase reporter [1]","EC50 (cells), NFkB-luciferase reporter [2]",Kd [3],t1/2 [3],Kd [4],t1/2 [4],Kd [5],t1/2 [5],binding result [6],IC50 [7],IC50 [8],IC50 [9],IC50 [10],IC50 [11],Kd [6]
B1,12400 cells,–,–,–,–,–,–,–,–,–,–,–,–,–,–
B2,–,8460 cells,–,–,–,–,–,–,–,–,–,–,–,–,–
B3,9770 cells,–,–,–,–,–,–,–,–,–,–,–,–,–,–
B4,–,–,0.192 nM,1.8 h,0.176 nM,2.87 h,0.218 nM,1.97 h,no binding (tested: up to 100 nM),0.12 nM,0.046 nM,0.009 nM,0.081 nM,0.102 nM,–
B5,–,–,1.08 nM,0.283 h,1.84 nM,0.167 h,4.1 nM,0.05 h,–,0.396 nM,0.154 nM,0.055 nM,0.239 nM,0.317 nM,171 nM
